# Assay results reported in article PMC3626232 (The Journal of biological chemistry, 2000).
# B1: XMcm4 (natural protein, UniProt P30664 1-863, looked up)
# chain: MSSPTSTPSRRRNKRGRGSNPPTPHGEEVQSPPSQRRRTEDSTSIGELLPMPTSPSGDVQSPSGQELLFSSPAPSRHSAHQSELDLSSPLTYGTPSSRVEGTPRSGIRGTPARQRPDLGSARKVKQVDLHSDQPAAEELVTSEQSLGQKLVIWGTDVNVATCKEKFQRFVQRFIDPSAKEEDNVGLDLNEPIYMQRLEEINVVGDPFLNIDCDHLRNFDQDLYRQLVCYPQEVIPTFDMAANEIFFERYPDSILEHQIQVRPYNALKTRNMRSLNPEDIDQLITISGMVIRTSQIIPEMQEAFFKCQVCAFTTRVEIDRGRIAEPSVCKHCNTTHSMALIHNRSMFSDKQMIKLQESPEDMPAGQTPHTTILYGHNDLVDKVQPGDRVNVTGIYRAVPIRVNPRVRNVKSVYKTHIDVIHYRKTDSKRLHGIDEDTEQKLFTEERVAMLKELAAKPDIYERLAAALAPSIYEHEDIKKGILLQLFGGTRKDFSHTGRGKFRAEVNILLCGDPGTSKSQLLQYVFNLVPRGQYTSGKGSSAVGLTAYVMKDPETRQLVLQTGALVLSDNGICCIDEFDKMNESTRSVLHEVMEQQTLSIAKAGIICQLNARTSVLAAANPVESQWNPKKTTIENIQLPHTLLSRFDLIFLMLDPQDEAYDRRLAHHLVALYYQSEEQMKEEHLDMAVLKDYIAYARTYVNPRLSEEASQALIEAYVSMRKIGSGRGMVSAYPRQLESLIRLSEAHAKVRFSNKVETIDVEEAKRLHREALKQSATDPRTGIVDISILTTGMSATARKRKEELAQVLKKLIQSKGKTPALKYQQLFEDLRGQSDAAITKDMFDEALHALADDDYLTVTGKTVRLL
# Tests used:
# Test in all cases: co-purification by chromatography with densitometry
# [1] = biological target: T1, XMcm3 (Xenopus (endogenous in Xenopus egg …, UniProt P49739 1-807))
# T1 sequence (looked up): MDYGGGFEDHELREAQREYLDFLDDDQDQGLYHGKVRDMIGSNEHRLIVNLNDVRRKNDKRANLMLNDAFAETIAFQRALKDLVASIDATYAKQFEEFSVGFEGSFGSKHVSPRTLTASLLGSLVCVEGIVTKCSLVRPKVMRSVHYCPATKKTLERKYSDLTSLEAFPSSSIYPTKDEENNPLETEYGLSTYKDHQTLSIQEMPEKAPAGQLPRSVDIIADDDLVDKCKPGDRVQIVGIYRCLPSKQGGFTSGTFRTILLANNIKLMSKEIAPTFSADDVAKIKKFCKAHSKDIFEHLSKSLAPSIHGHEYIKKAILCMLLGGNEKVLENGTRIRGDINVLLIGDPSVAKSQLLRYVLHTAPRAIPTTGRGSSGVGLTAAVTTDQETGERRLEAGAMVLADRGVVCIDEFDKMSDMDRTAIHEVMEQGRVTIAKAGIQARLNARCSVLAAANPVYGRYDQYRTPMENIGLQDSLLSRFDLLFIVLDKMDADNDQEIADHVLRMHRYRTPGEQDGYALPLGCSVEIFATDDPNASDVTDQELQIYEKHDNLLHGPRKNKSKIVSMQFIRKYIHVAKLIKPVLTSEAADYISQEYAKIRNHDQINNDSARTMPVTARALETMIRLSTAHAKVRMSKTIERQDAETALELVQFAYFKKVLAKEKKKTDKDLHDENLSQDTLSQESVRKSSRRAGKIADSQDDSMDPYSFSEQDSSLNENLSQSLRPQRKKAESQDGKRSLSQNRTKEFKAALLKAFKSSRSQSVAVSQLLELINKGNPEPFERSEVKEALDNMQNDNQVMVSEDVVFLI
# [2] = biological target: T2, XMcm2 (Xenopus (endogenous in Xenopus egg …, UniProt P55861 1-886))
# T2 sequence (looked up): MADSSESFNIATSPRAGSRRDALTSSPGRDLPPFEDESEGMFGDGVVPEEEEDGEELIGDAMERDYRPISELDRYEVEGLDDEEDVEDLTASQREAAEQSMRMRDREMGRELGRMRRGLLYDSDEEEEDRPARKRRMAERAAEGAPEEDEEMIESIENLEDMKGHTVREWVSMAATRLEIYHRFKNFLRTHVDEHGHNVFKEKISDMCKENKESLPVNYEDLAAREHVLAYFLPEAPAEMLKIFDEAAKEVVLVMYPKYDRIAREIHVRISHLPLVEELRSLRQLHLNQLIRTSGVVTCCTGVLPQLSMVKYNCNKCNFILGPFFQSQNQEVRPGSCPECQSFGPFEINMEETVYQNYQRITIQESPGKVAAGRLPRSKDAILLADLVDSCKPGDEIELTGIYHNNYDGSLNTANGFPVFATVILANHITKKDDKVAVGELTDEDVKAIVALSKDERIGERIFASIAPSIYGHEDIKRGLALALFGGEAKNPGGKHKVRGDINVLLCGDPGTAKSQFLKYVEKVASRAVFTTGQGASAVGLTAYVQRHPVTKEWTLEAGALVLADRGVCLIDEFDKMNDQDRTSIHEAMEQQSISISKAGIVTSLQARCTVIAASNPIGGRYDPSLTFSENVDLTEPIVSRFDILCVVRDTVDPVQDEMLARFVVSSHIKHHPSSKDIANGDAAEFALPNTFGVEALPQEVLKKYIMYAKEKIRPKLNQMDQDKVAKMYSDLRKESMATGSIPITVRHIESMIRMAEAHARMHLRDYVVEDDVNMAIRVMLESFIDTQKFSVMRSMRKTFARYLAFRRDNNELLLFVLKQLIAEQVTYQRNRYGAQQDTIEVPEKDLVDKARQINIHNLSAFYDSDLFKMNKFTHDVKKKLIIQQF
# [3] = biological target: B1
Binder,binding result [1],stoichiometry N [2],stoichiometry N [3],stoichiometry N [1]
"XMcm7 (natural protein, UniProt Q91876 1-720, looked up) MPRDYQTEKEKCKTFLQEFYKDDEIGKKHFKYGVQLANIAHREQVALYIDLDDLAEEDPELVDAICENTRRYTNLFADAVQELLPQYKEREVVHKDALDVYIEHRLMMEQRGRDPNEMRDSQNQYPPELMRRFELYFKAPSSSKARVVRDVKADSIGKLVNIRGIVTRVTEVKPMMVVATYTCDQCGAETYQPIQSPTFMPLIMCPSRECQTNRSGGRLYLQTRGSKFIKFQELKIQEHSDQVPVGNIPRCMSVYVRGENTRLAQPGDHVGITGVFLPMLRTGFRQVVQGLLSETYLECHRLVKMNKSEDDELGTEELSEEELRQITEEDFYEKLAASIAPEIYGHEDVKKALLLLLVGGVDNSPRGMKIRGNINICLMGDPGVAKSQLLSYIDRLAPRSQYTTGRGSSGVGLTAAVMKDPVTGEMTLEGGALVLADQGVCCIDEFDKMMDTDRTAIHEVMEQQTISIAKAGIMTTLNARCSILAAANPAYGRYNPKKTVEQNIQLPAALLSRFDVLWLIQDKPDRDNDLRLAQHITYVHQHSKQPPSQFQPLDMKLMRRYITMCKRKQPAIPEALADYLTAAYVEMRKEARTNKDMTFTSARTLLSVLRLSTALARLRLEDVVEKEDVNEAMRLMEMSKDSLLGDKGHTSRTQRPADVIFSTIREMVPEKGARSVKYSEAEQRCVSKGFTPAQFEAALEEYEELNVWLVNQARTKITFV",binds,1.1 XMcm7 per 1.0 XMcm2,1.1 XMcm7 per 1.0 XMcm4,–
"XMcm5 (natural protein, UniProt P55862 1-735, looked up) MSGFDDLGVYYSDSFGGEQQVGDDGQAKKSQLKKRFREFLRQYRIGTDRTGFTFKYRDELKRHYNLGEYWIEVEMEDLASFDEDLADYLYKQPTEHLQLLEEAAQEVADEVTRPRPAGEETIQEIQVMLRSDANPANIRSLKSEQMSHLVKIPGIIIAATAVRAKATKISIQCRSCRNTIGNIAVRPGLEGYAMPRKCNTEQAGRPNCPLDPYFIIPDKCKCVDFQTLKLQESPDAVPHGELPRHMQLYCDRYLCDKVVPGNRVTIMGIYSIRKSGKTSTKGRDRVGVGIRSSYIRVVGIQVDTEGTGRSAAGAITPQEEEEFRRLAAKPDIYETVAKSIAPSIYGSSDIKKAIACLLFGGSRKRLPDGLTRRGDVNLLMLGDPGTAKSQLLKFVERCSPIGVYTSGKGSSAAGLTASVMRDPVSRNFIMEGGAMVLADGGVVCIDEFDKMREDDRVAIHEAMEQQTISIAKAGITTTLNSRCSVLAAANSVYGRWDDTKGEENIDFMPTILSRFDMIFIVKDEHNEQRDMTLAKHVMNVHLSARTQSSSVEGEVDLNTLKKYIAYCRAKCGPRLSAEAAEKLKNRYILMRSGAREHERETEKRSSIPITVRQLEAIVRISESLGKMKLQPFATETDVEEALRLFQVSTLDAAMSGSLSGVEGFTTQEDQEMLSRIEKQMKKRFAIGSQVSEHSIIQDFLKQKYPEHAIHKVLSLMMRRGEIQHRLQRKVLYRIK",–,–,–,1.2 XMcm5 per 1.0 XMcm3
"XMcm6 (natural protein, UniProt Q5FWY4 1-821, looked up) MELGGPAAAGDTDIAGQQLFKDELSDKCQKLFLEFLEECKGKDGSNLYVSAAEELIRPERNTLAVNFTDIEYYNQQLATTIQEEYYRVYPHLCRAVRSFARQMGNIPANKEFYIAFSDFPARQKIRELSSAKIGTLLRISGQVVRTHPVHPELVSGTFLCMDCQSIVKDVEQQFRYTQPTICKNPVCANRRRFTLDTNKSRFVDFQKVRIQETQAELPRGAIPRSVEIILRAEAVESAMAGDRCDFTGTLIVVPDVSALAAGDARMETGAKVTGGEGFNSEGVQGLKALGVRDLSYRLAFLACYVGATNPRFGGKDLREEDQTAESIKNQMTVQEWEKVFEMSQDKNLYHNLCTSLFPTIHGNDEIKRGVLLMLFGGVPKTTMEGTSLRGDINVCIVGDPSTSKSQFLKHVEEFSPRAVYTSGKASSAAGLTAAVVKDEESHEFVIEAGALMLADNGVCCIDEFDKMDLKDQVAIHEAMEQQTISITKAGVKATLNARTSILAAANPVGGRYERSKSLKHNVNLSAPIMSRFDLFFILVDECNEVTDYAIARRIVDLHARNEESIERVYSIEDIQRYLLFARQFQPKITKEAEEFIVEQYRRLRQRDGSGVAKSSWRITVRQLESLIRLSESMARMHCSDEVQPKHVKEAFRLLSKSIIRVDTPDVSFDQGEDEKNIEGENNGNLNNGEEAMETNQDEPINEKPSSNAGLKMSFAEYKQISNLLVLYMQKMEETEEECHLTTTDLVNWYLKEMEAEIETETELILKKRLIEKVIHRLIYYDHILIELNKSELKTMDDTKETGEDAAEDRILVVNPNYMLED",–,1.1 XMcm6 per 1.0 XMcm2,1 XMcm6 per 1.0 XMcm4,–
B1,–,1.1 XMcm4 per 1.0 XMcm2,–,–
